The chains are these.
B1: HDV Ribozyme (parent)
chain: GGCCGGCAUGGUCCCAGCCUCCUCGCUGGCGCCGGCUGGGCAACAUUCCGAGGGGACCGUCCCCUCGGUAAUGGCGAAUGGGACCCA

Variants of B1 are the subject of this series. Nature of the series: self-cleavage, relative activity (ratio to wild type); higher = more cleavage; co-transcriptional.
On to U20C C36U, for which the self-cleavage was found to be 0.131. In the case of U20A C85U it was 0.0405. In the case of U20A U47G it was 0; in that of C21U C36U, 0.218. Regarding C21G G35U, the self-cleavage turned out to be 0.104. Take C21A G34U: the self-cleavage worked out at 0.0647.

For the variant C22A G74A, the self-cleavage is 0.0744. In the case of U20C G53C it was 0.151; in that of C21U U65C, 0.198; in that of C21U U65G, 0.0852.

Take C21U A56U: the self-cleavage was 0.3. Take C21U A56G: the self-cleavage came out at 0.315. U20A C33U: the self-cleavage came out at 0. As to U20C C32G, the self-cleavage is 0.138. As for C21G G34U, the self-cleavage was 0.0604. Take U20A U69A: the self-cleavage was determined as 0.

Turning to U20C G68C, the self-cleavage came to 0.192. The result for U20C G68U reads 0.145; that for U20C G68A, 0.111; that for C21A G38A, 0.0237.

As for C21U C64U, the self-cleavage stood at 0.17.

As for U20A U79G, the self-cleavage worked out at 0.0665. The result for U20A U79C reads 0; that for U20A U79A, 0.0573; that for C21A C84U, 0.0489.

In the case of U20C G74U, the self-cleavage is 0.104. For the variant C21A G28A, the self-cleavage was found to be 0.0268. In the case of U20G C75U it was 0.0875; in that of C21G G76A, 0.0386; in that of C21A C33G, 0.0554. Regarding C21A G81A, the self-cleavage was found to be 0.0647.

As to C21A U65A, the self-cleavage was 0.0405.

Regarding U20C G55A, the self-cleavage was 0.0405. With C21A C75U, the self-cleavage was determined as 0.0297. The result for C21G G55U reads 0.0755. As for U20A G50A, the self-cleavage was 0.0449. For the variant U20A G50C, the self-cleavage was determined as 0.131. For C21A G31A, the self-cleavage worked out at 0.0482. As to U20C U46G, the self-cleavage was determined as 0. Take C21G G82C: the self-cleavage came out at 0.0437. Regarding C21G G82A, the self-cleavage amounted to 0.101.

Consider C21G G82U, for which the self-cleavage was found to be 0.106. The result for U20A C75G reads 0.0791; that for C21G G40U, 0.0308. In the case of C21G C61U it was 0.032; in that of U20A U23A, 0.277; in that of U20C G40U, 0.113. On to C21U G52U, for which the self-cleavage came to 0.182.

For the variant U20C C49A, the self-cleavage is 0.172. On to U20G A51G, for which the self-cleavage stood at 0.145. Regarding U20G A51C, the self-cleavage turned out to be 0.332.

On to U20C C61U, for which the self-cleavage was determined as 0.0723. For the variant C22A A77G, the self-cleavage turned out to be 0.38.

As for U20A A83G, the self-cleavage worked out at 0.14. Regarding U20A C41G, the self-cleavage stood at 0.135.

C21A G25U: the self-cleavage amounted to 0.113. With C22A A51G, the self-cleavage turned out to be 0.457.

In the case of C21G A51C, the self-cleavage is 0.

With C21A U47C, the self-cleavage is 0. In the case of C21A U47G it was 0.0504; in that of C21G A56C, 0.0386. In the case of U20A A77U it was 0; in that of U20C U27G, 0.185; in that of C21G C33A, 0. C21G C33G: the self-cleavage was found to be 0.101. Consider C21G C33U, for which the self-cleavage is 0. The result for U20C G31C reads 0.0594.

As for C21U G67U, the self-cleavage amounted to 0.174.

For U20A G40A, the self-cleavage turned out to be 0.0426.

On to C21G G73U, for which the self-cleavage came to 0.026. Turning to C21G G73C, the self-cleavage is 0.17. For U20C A78U, the self-cleavage amounted to 0.111. The result for U20A G68C reads 0.0978; that for U20C G50A, 0.306; that for C21A G29A, 0.0875. The result for C21A G29C reads 0.0604. The result for U20G U46A reads 0.192; that for U20A C22U, 0. In the case of U20A C22G, the self-cleavage came to 0. On to U20A G74C, for which the self-cleavage was found to be 0.0396. As for C22A C49A, the self-cleavage turned out to be 0.128.

Take U20G C64U: the self-cleavage was found to be 0.291. In the case of U20G G31C it was 0; in that of U20G G31A, 0; in that of U20G U72A, 0.0875. The result for C22A A42U reads 0.111; that for C22A G39U, 0.166; that for C22A G39C, 0.0437. In the case of C22A G39A, the self-cleavage came to 0.0528. In the case of C21U U72C it was 0.284; in that of C21G A43C, 0; in that of C21G A43U, 0.

Consider C21G A43G, for which the self-cleavage was 0.128. In the case of C21G G80A it was 0.0196. In the case of C21G G80U it was 0.0963. In the case of C21U C57U it was 0.18; in that of C21U G73A, 0.0955. Take C21A U46G: the self-cleavage came to 0.138. For C21U C62U, the self-cleavage is 0.317. In the case of U20A A45G, the self-cleavage came to 0. On to U20A G52U, for which the self-cleavage came out at 0.0462. On to U20A G52A, for which the self-cleavage is 0.0415. The result for U20G A77G reads 0.0692; that for U20G A77U, 0.237. The result for U20G A77C reads 0.178. Consider C21A G59C, for which the self-cleavage stood at 0.116. Regarding U20A C36A, the self-cleavage is 0.135. In the case of U20A C36G it was 0.18; in that of U20A C36U, 0; in that of U20C C48A, 0.341. Consider U20A G76C, for which the self-cleavage turned out to be 0. Turning to C21U U37A, the self-cleavage was found to be 0.157.

As to C21A C49A, the self-cleavage stood at 0.157. As for C21A C49U, the self-cleavage came out at 0.0272. With C21A C41A, the self-cleavage was determined as 0.121. Regarding C21A G73U, the self-cleavage worked out at 0.0528. Turning to C21A G73A, the self-cleavage came to 0.161. In the case of C21U G25A, the self-cleavage was 0.0997. U20G G53U: the self-cleavage is 0.208. The result for C21G C24G reads 0.0504; that for C21U G81C, 0.106. The result for C21U G81U reads 0.0875; that for C21U G81A, 0.0978; that for U20A G31C, 0.0475. In the case of C21G C62U, the self-cleavage worked out at 0. Take C21G C62A: the self-cleavage is 0.119. On to C21A C36A, for which the self-cleavage was determined as 0.117. Turning to C22A C61U, the self-cleavage was 0.237. In the case of C21U U23A it was 0.173.

Turning to U20C C24A, the self-cleavage came out at 0.

As for U20G G38U, the self-cleavage was found to be 0.0573. Consider C21A A56U, for which the self-cleavage was found to be 0.108. In the case of C21U A42U, the self-cleavage stood at 0.0845. C21A A42G: the self-cleavage was determined as 0.158. The result for C21U A51U reads 0.308; that for C21U A51G, 0.228; that for C21U A51C, 0.332. Consider C21G C44U, for which the self-cleavage was 0.0898.

On to C21G C44A, for which the self-cleavage is 0.

Take U20G G82A: the self-cleavage came to 0.123. For the variant C21A U69G, the self-cleavage worked out at 0.0723.

Consider C21U C85G, for which the self-cleavage stood at 0.358. Consider U20C C21A, for which the self-cleavage was 0.0475. Turning to C21U G31U, the self-cleavage is 0.173.

On to U20C G29A, for which the self-cleavage was determined as 0.0773. In the case of C22A C41G it was 0.175.

In the case of U20A G54A, the self-cleavage amounted to 0.116. The result for C21G U27G reads 0; that for C21G C26A, 0. Take C21G C26U: the self-cleavage was determined as 0.0615. As to C22A A70U, the self-cleavage was determined as 0.222. On to C22A G73C, for which the self-cleavage amounted to 0.0482. As for C22A G73A, the self-cleavage amounted to 0.0723. Turning to C22A G52C, the self-cleavage was determined as 0.305.

Take U20C A51U: the self-cleavage was 0.185. In the case of U20C U79A it was 0; in that of U20G G55U, 0.332; in that of U20A C26G, 0. Turning to C21U C30A, the self-cleavage was 0.153.

For U20C G54U, the self-cleavage stood at 0.122.

In the case of U20C C75A, the self-cleavage was determined as 0.0594. Turning to U20G A42U, the self-cleavage is 0.

For U20G C22A, the self-cleavage worked out at 0.185. In the case of U20G C22U it was 0.145. For the variant U20G C22G, the self-cleavage worked out at 0.266. The result for U20C U47A reads 0.133.

As for U20C A77U, the self-cleavage was 0.0898.
